# According to patent US20190284262A1:
# Key:
# [1] = target: HLA-A2 on MAC-1 and MAC-2A cells (Homo sapiens), A*02:0; experiment: flow cytometry on MAC-1 cells, isotype control of BB7
# [2] = target: HLA-A2 on MAC-1 and MAC-2A cells (Homo sapiens), A*02:0; experiment: flow cytometry on MAC-2A cells, isotype control of BB7
# [3] = target: HLA-A*02:01 on T2 cells alone (no peptide added) (human); experiment: flow cytometry, HLA-A2 staining of T2 without peptide
# [4] = target: HLA-A2 on MAC-1 and MAC-2A cells (Homo sapiens), A*02:0; experiment: flow cytometry on MAC-1 cells, HLA-A2 staining; isotype control 93.6
# [5] = target: HLA-A2 on MAC-1 and MAC-2A cells (Homo sapiens), A*02:0; experiment: flow cytometry on MAC-2A cells, HLA-A2 staining; isotype control 86.2
# [6] = target: 017-mut1 peptide (…)/HLA-A*02:01 complex on T2 cells (human); experiment: flow cytometry, HLA-A2 staining of T2 pulsed with peptide A1 (T2 stabilisation)
# [7] = target: 017-mut2 peptide (…)/HLA-A*02:01 complex on T2 cells (human); experiment: flow cytometry, HLA-A2 staining of T2 pulsed with peptide A2 (T2 stabilisation)
# [8] = target: 017-mut3 peptide (…)/HLA-A*02:01 complex on T2 cells (human); experiment: flow cytometry, HLA-A2 staining of T2 pulsed with peptide A3 (T2 stabilisation)
# [9] = target: 017-mut5 peptide (…)/HLA-A*02:01 complex on T2 cells (human); experiment: flow cytometry, HLA-A2 staining of T2 pulsed with peptide A5 (T2 stabilisation)
# [10] = target: 017-mut7 peptide (…)/HLA-A*02:01 complex on T2 cells (human); experiment: flow cytometry, HLA-A2 staining of T2 pulsed with peptide A7 (T2 stabilisation)
# [11] = target: 017-mut8 peptide (…)/HLA-A*02:01 complex on T2 cells (human); experiment: flow cytometry, HLA-A2 staining of T2 pulsed with peptide A8 (T2 stabilisation)
# [12] = target: 017-mut9 peptide (…)/HLA-A*02:01 complex on T2 cells (human); experiment: flow cytometry, HLA-A2 staining of T2 pulsed with peptide A9 (T2 stabilisation)
# [13] = target: T2+FoxP7-G10 (Homo sapiens), A*02:0; experiment: flow cytometry, HLA-A2 staining of T2 pulsed with peptide G10 (T2 stabilisation)
# [14] = target: Foxp3-7 peptide/HLA-A*02:01 complex on the cell surface (human); experiment: flow cytometry, HLA-A2 staining of T2 pulsed with the wild type Foxp3-7 peptide (T2 stabilisation)
Median:FITC-A [1],Median:FITC-A [2],Median:FITC-A [3],Median:FITC-A [4],Median:FITC-A [5],Median:FITC-A [6],Median:FITC-A [7],Median:FITC-A [8],Median:FITC-A [9],Median:FITC-A [10],Median:FITC-A [11],Median:FITC-A [12],Median:FITC-A [13],Median:FITC-A [14],Substance
93.6,86.2,,,,,,,,,,,,,mIso (antibody)
,,6940,35000,44000,29600,11200,35100,10400,18600,16500,10400,34100,18000,BB7 (antibody)
